Test results from patent publication US20240261333A1, “NOVEL TARGETS FOR ENHANCING ANTI-TUMOR IMMUNITY” (THE BROAD INSTITUTE, INC., priority 2021, published 2024).

T1: B3GNT2 (Homo sapiens, UniProt Q9NY97)
T1 construct: The respective ORFs of candidate genes [CD274 (NM_014143), MCL1 (NM_021960), JUNB (NM_002229), and B3GNT2 (NM_006577)] were synthesized; expressed in transfected cells; host or cells: A375 melanoma cells (lentiviral ORF overexpression)
T1 sequence (Q9NY97 1-397): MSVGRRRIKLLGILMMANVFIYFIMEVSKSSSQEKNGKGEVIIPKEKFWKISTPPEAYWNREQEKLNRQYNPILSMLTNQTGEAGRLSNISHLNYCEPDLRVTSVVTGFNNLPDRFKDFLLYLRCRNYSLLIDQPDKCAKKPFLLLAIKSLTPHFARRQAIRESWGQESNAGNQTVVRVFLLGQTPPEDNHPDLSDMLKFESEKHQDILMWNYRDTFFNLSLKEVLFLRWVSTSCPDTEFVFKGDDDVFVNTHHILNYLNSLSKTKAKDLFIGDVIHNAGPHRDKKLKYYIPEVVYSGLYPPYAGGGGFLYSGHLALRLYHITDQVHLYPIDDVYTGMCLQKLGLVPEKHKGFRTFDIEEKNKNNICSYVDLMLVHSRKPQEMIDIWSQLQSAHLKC

B1: GNAS (protein)
chain: MGVRNCLYGNNMSGQRDIPPEIGEQPEQPPLEAPGAAAPGAGPSPAEEMETEPPHNEPIPVENDGEACGPPEVSRPNFQVLNPAFREAGAHGSYSPPPEEAMPFEAEQPSLGGFWPTLEQPGFPSGVHAGLEAFGPALMEPGAFSGARPGLGGYSPPPEEAMPFEFDQPAQRGCSQLLLQVPDLAPGGPGAAGVPGAPPEEPQALRPAKAGSRGGYSPPPEETMPFELDGEGFGDDSPPPGLSRVIAQVDGSSQFAAVAASSAVRLTPAANAPPLWVPGAIGSPSQEAVRPPSNFTGSSPWMEISGPPFEIGSAPAGVDDTPVNMDSPPIALDGPPIKVSGAPDKRERAERPPVEEEAAEMEGAADAAEGGKVPSPGYGSPAAGAASADTAARAAPAAPADPDSGATPEDPDSGTAPADPDSGAFAADPDSGAAPAAPADPDSGAAPDAPADPDSGAAPDAPADPDAGAAPEAPAAPAAAETRAAHVAPAAPDAGAPTAPAASATRAAQVRRAASAAPASGARRKIHLRPPSPEIQAADPPTPRPTRASAWRGKSESSRGRRVYYDEGVASSDDDSSGDESDDGTSGCLRWFQHRRNRRRRKPQRNLLRNFLVQAFGGCFGRSESPQPKASRSLKVKKVPLAEKRRQMRKEALEKRAQKRAEKKRSKLIDKQLQDEKMGYMCTHRLLLLGAGESGKSTIVKQMRILHVNGFNGEGGEEDPQAARSNSDGEKATKVQDIKNNLKEAIETIVAAMSNLVPPVELANPENQFRVDYILSVMNVPDFDFPPEFYEHAKALWEDEGVRACYERSNEYQLIDCAQYFLDKIDVIKQADYVPSDQDLLRCRVLTSGIFETKFQVDKVNFHMFDVGGQRDERRKWIQCFNDVTAIIFVVASSSYNMVIREDNQTNRLQEALNLFKSIWNNRWLRTISVILFLNKQDLLAEKVLAGKSKIEDYFPEFARYTTPEDATPEPGEDPRVTRAKYFIRDEFLRISTASGDGRHYCYPHFTCAVDTENIRRVFNDCRDIIQRMHLRQYELL
B2: DPM1 (protein, UniProt O60762 2-260, looked up)
Dolichol-phosphate …: ASLEVSRSPRRSRRELEVRSPRQNKYSVLLPTYNERENLPLIVWLLVKSFSESGINYEIIIIDDGSPDGTRDVAEQLEKIYGSDRILLRPREKKLGLGTAYIHGMKHATGNYIIIMDADLSHHPKFIPEFIRKQKEGNFDIVSGTRYKGNGGVYGWDLKRKIISRGANFLTQILLRPGASDLTGSFRLYRKEVLEKLIEKCVSKGYVFQMEMIVRARQLNYTIGEVPISFVDRVYGESKLGGNEIVSFLKGLLTLFATT
B3: SMN1 (protein)
chain: AMSSGGSGGGVPEQEDSVLFRRGTGQSDDSDIWDDTALIKAYDKAVASFKHALKNGDICETSGKPKTTPKRKPAKKNKSQKKNTAASLQQWKVGDKCSAIWSEDGCIYPATIASIDFKRETCVVVYTGYGNREEQNLSDLLSPICEVANNIEQNAQENENESQVSTDESENSRSPGNKSDNIKPKSAPWNSFLPPPPPMPGPRLGPGKPGLKFNGPPPPPPPPPPHLLSCWLPPFPSGPPIIPPPPPICPDSLDDADALGSMLISWYMSGYHTGYYMEMLA
B4: PGK1 (protein)
chain: SLSNKLTLDKLDVKGKRVVMRVDFNVPMKNNQITNNQRIKAAVPSIKFCLDNGAKSVVLMSHLGRPDGVPMPDKYSLEPVAVELKSLLGKDVLFLKDCVGPEVEKACANPAAGSVILLENLRFHVEEEGKGKDASGNKVKAEPAKIEAFRASLSKLGDVYVNDAFGTAHRAHSSMVGVNLPQKAGGFLMKKELNYFAKALESPERPFLAILGGAKVADKIQLINNMLDKVNEMIIGGGMAFTFLKVLNNMEIGTSLFDEEGAKIVKDLMSKAEKNGVKITLPVDFVTADKFDENAKTGQATVASGIPAGWMGLDCGPESSKKYAEAVTRAKQIVWNGPVGVFEWEAFARGTKALMDEVVKATSRGCITIIGGGDTATCCAKWNTEDKVSHVSTGGGASLELLEGKVLPGVDALSNI
B5: MYO1D (protein)
chain: AEQESLEFGKADFVLMDTVSMPEFMANLRLRFEKGRIYTFIGEVVVSVNPYKLLNIYGRDTIEQYKGRELYERPPHLFAIADAAYKAMKRRSKDTCIVISGESGAGKTEASKYIMQYIAAITNPSQRAEVERVKNMLLKSNCVLEAFGNAKTNRNDNSSRFGKYMDINFDFKGDPIGGHINNYLLEKSRVIVQQPGERSFHSFYQLLQGGSEQMLRSLHLQKSLSSYNYIHVGAQLKSSINDAAEFRVVADAMKVIGFKPEEIQTVYKILAAILHLGNLKFVVDGDTPLIENGKVVSIIAELLSTKTDMVEKALLYRTVATGRDIIDKQHTEQEASYGRDAFAKAIYERLFCWIVTRINDIIEVKNYDTTIHGKNTVIGVLDIYGFEIFDNNSFEQFCINYCNEKLQQLFIQLVLKQEQEEYQREGIPWKHIDYFNNQIIVDLVEQQHKGIIAILDDACMNVGKVTDEMFLEALNSKLGKHAHFSSRKLCASDKILEFDRDFRIRHYAGDVVYSVIGFIDKNKDTLFQDFKRLMYNSSNPVLKNMWPEGKLSITEVTKRPLTAATLFKNSMIALVDNLASKEPYYVRCIKPNDKKSPQIFDDERCRHQVEYLGLLENVRVRRAGFAFRQTYEKFLHRYKMISEFTWPNHDLPSDKEAVKKLIERCGFQDDVAYGKTKIFIRTPRTLFTLEELRAQMLIRIVLFLQKVWRGTLARMRYKRTKAALTIIRYYRRYKVKSYIHEVARRFHGVKTMRDYGKHVKWPSPPKVLRRFEEALQTIFNRWRASQLIKSIPASDLPQVRAKVAAVEMLKGQRADLGLQRAWEGNYLASKPDTPQTSGTFVPVANELKRKDKYMNVLFSCHVRKVNRFSKVEDRAIFVTDRHLYKMDPTKQYKVMKTIPLYNLTGLSVSNGKDQLVVFHTKDNKDLIVCLFSKQPTHESRIGELVGVLVNHFKSEKRHLQVNVTNPVQCSLHGKKCTVSVETRLNQPQPDFTKNRSGFILSVPGN
B6: TM9SF3 (protein)
chain: DEHEHTYQDKEEVVLWMNTVGPYHNRQETYKYFSLPFCVGSKKSISHYHETLGEALQGVELEFSGLDIKFKDDVMPATYCEIDLDKEKRDAFVYAIKNHYWYQMYIDDLPIWGIVGEADENGEDYYLWTYKKLEIGFNGNRIVDVNLTSEGKVKLVPNTKIQMSYSVKWKKSDVKFEDRFDKYLDPSFFQHRIHWFSIFNSFMMVIFLVGLVSMILMRTLRKDYARYSKEEEMDDMDRDLGDEYGWKQVHGDVFRPSSHPLIFSSLIGSGCQIFAVSLIVIIVAMIEDLYTERGSMLSTAIFVYAATSPVNGYFGGSLYARQGGRRWIKQMFIGAFLIPAMVCGTAFFINFIAIYYHASRAIPFGTMVAVCCICFFVILPLNLVGTILGRNLSGQPNFPCRVNAVPRPIPEKKWFMEPAVIVCLGGILPFGSIFIEMYFIFTSFWAYKIYYVYGFMMLVLVILCIVTVCVTIVCTYFLLNAEDYRWQWTSFLSAASTAIYVYMYSFYYYFFKTKMYGLFQTSFYFGYMAVFSTALGIMCGAIGYMGTSAFVRKIYTNVKID
B7: SLC25A10 (protein)
chain: MAAEARVSRWYFGGLASCGAACCTHPLDLLKVHLQTQQEVKLRMTGMALRVVRTDGILALYSGLSASLCRQMTYSLTRFAIYETVRDRVAKGSQGPLPFHEKVLLGSVSGLAGGFVGTPADLVNVRMQNDVKLPQGQRRNYAHALDGLYRVAREEGLRRLFSGATMASSRGALVTVGQLSCYDQAKQLVLSTGYLSDNIFTHFVASFIAAAGDEPPPQGGCATFLCQPLDVLKTRLMNSKGEYQGVFHCAVETAKLGPLAFYKGLVPAGIRLIPHTVLTFVFLEQLRKNFGIKVPS
B8: HLA-A (protein)
MHC heavy: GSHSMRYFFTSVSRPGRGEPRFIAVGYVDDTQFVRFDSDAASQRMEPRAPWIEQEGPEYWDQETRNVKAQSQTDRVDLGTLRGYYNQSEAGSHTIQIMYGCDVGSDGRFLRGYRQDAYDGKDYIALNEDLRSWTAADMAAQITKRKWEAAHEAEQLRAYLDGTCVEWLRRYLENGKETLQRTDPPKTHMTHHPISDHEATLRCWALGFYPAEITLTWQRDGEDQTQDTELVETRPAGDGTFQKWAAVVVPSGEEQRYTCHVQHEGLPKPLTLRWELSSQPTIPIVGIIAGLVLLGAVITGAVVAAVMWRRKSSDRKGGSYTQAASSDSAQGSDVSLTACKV
B9: SFXN3 (protein)
chain: MGELPLDINIQEPRWDQSTFLGRARHFFTVTDPRNLLLSGAQLEASRNIVQNYRAGVVTPGITEDQLWRAKYVYDSAFHPDTGEKVVLIGRMSAQVPMNMTITGCMLTFYRKTPTVVFWQWVNQSFNAIVNYSNRSGDTPITVRQLGTAYVSATTGAVATALGLKSLTKHLPPLVGRFVPFAAVAAANCINIPLMRQRELQVGIPVADEAGQRLGYSVTAAKQGIFQVVISRICMAIPAMAIPPLIMDTLEKKDFLKRRPWLGAPLQVGLVGFCLVFATPLCCALFPQKSSIHISNLEPELRAQIHEQNPSVEVVYYNKGL

Molecular target: T1, B3GNT2
Assay: Co-IP of FLAG-tagged B3GNT2 followed by mass spectrometry
Type: cell-based
Design: C-term IgG / C-term flag: unit not given here
Settings: mass spectrometry count, unit not given; for C-term flag / N-term FLAG: Co-IP with FLAG antibody; for C-term flag / C-term IgG: C-terminally FLAG-tagged B3GNT2; for N-term FLAG / N-term IgG: N-terminally FLAG-tagged B3GNT2; for C-term IgG / N-term IgG: Co-IP with IgG control antibody
In short: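 FLAG-tagged B3GNT2 immunoprecipitated from cell lysate (HEPES, 1% Triton X-100, 150 mM NaCl) with anti-FLAG versus […], overnight at 4° C, then captured on Protein A/G magnetic beads for 4 h. Two biological replicates per condition. Peptides fractionated and analyzed by nano-LC on an Orbitrap Elite in data-dependent mode.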

Molecule	C-term flag	N-term FLAG	C-term IgG	N-term IgG
B1	2	0	0	0
B2	8	4	0	0
B3	14	10	2	0
B4	2	0	0	0
B5	2	0	0	0
B6	11	0	0	0
B7	6	5	0	0
B8	4	6	0	0
B9	2	0	0	0
